Results: US20230060409

Test system: Ras

Substance: mouse neurofibromin expressed from full-length mNf1 cDNA with exon 28 deleted
- Ras assays (GTP-Ras levels, p-ERK/ERK ratio, ELK1 transcriptional activity): exon 28 deletion performed the worst in Ras assays as it retained the least function
